From patent publication US8017735B2, “Anti-IGFR1 antibody therapeutic combinations” (Schering Corporation, priority 2003, dated 2011)
Where “and” joins values, the source holds several entries; their conditions need not be identical. Equal values may be shown once.

What was measured:
MCF7 cells = experiment: Proliferation assay (Cell Titer-Glo) with anti-IGFR1 antibody and a chemotherapeutic agent, MCF7 cells; type: cell-based
Protocol: (§1) The ability of cells in culture to proliferate when exposed to varying concentrations of the 19D12/15H12 wild-type or 19D12/15H12 LCF/HCA anti-IGFR1 antibody and either paclitaxel, gefitinib, lonafarnib 4-hydroxy tamoxifen or doxorubicin was evaluated in this example.
(§2) Cell Preparation. […] The cells were trypsinized, counted and resuspended at a concentration of 25000 cells/ml in 10% HI-FBS (heat-inactivated fetal bovine serum) RPMI medium containing NEAA (non-essential amino acids), L-Glu, MEM Vitamins and PS. 100 ul of cell suspension (2500 cells) was added to each well of a BD Falcon 96 well black, clear bottom TC treated plate. The cells were allowed to attach and spread overnight at 37° C. The 10% RPMI solution was replaced with 100 μl RPMI containing 2% HI-FBS containing NEAA, L-Glu, MEM Vitamins and PS.
(§3) Solution Preparation. All assay reagents were prepared in RPMI containing 2% HI-FBS at 20× concentration and serial diluted for a total of 10 test concentrations per treatment. Every test point was prepared in triplicate on separate assay plates.
(§4) Reagent 1 and 19D12/15H12 or 19D12/15H12 LCF/HCA were set up individually as dose responses as well as in combination with each other. Cell proliferation was measured on Day4.
(§5) Assay. Cell proliferation was measured using the Promega Cell Titer-Glo Luminescent Cell Viability Assay (Promega Corp.; Madison, Wis.). This assay provided a method for determining the number of viable cells in culture based on quantitation of ATP in the culture, which indicates the presence of metabolically active cells.
(§6) The assay reagents and assay plates were equilibrated to room temperature and prepared immediately before addition to the assay plates. One volume of assay reagent was added to each well of the assay plate and shaken on an orbital platform for at least ten minutes to allow for equilibration of the ATP reaction and to ensure total lysis of all cells in the assay plate. […] Luminescence was detected on Wallac 420 Plate Reader with stacker.
(§7) The units in the tables (proliferation index) are arbitrary and are proportional to the number of viable cells observed in the culture under each respective condition.
(§8) In Tables 2-6, “ug” indicates micrograms and “uM” indicates micromolar.

H322 NSCLC cells = experiment: Proliferation assay (Cell Titer-Glo) with anti-IGFR1 antibody and a chemotherapeutic agent, H322 NSCLC cells; type: cell-based, human; conditions: H322, Day4, replicates
Protocol: as §1, §2, §3, §4, §5, §6, §7, §8

## CC/C(=C(\c1ccc(O)cc1)c1ccc(OCCN(C)C)cc1)c1ccccc1 [4-hydroxy tamoxifen, 4-hydroxytamoxifen, reference compound]
MCF7 cells; 4-hydroxy tamoxifen alone 20000 ng/mL
  proliferation index: 80 and 72 and 87 and 71 and 61 and 67 and 70 and 92

## COc1cc2ncnc(Nc3ccc(F)c(Cl)c3)c2cc1OCCCN1CCOCC1 [Iressa, 4-(3-chloro-4-fluoroanilino)-7-methoxy-6-(3-morpholinopropoxy)quinazoline]
H322 NSCLC cells; Iressa alone 0.0512 nM
  proliferation index: 59448 and 76032 and 61018 and 59690 and 63252 and 63688 and 60730 and 74464 and 65802
H322 NSCLC cells; Iressa alone 0.256 nM
  proliferation index: 56752 and 73246 and 58760 and 59474 and 57314 and 58384 and 59448 and 66806 and 64854
H322 NSCLC cells; Iressa alone 32 nM
  proliferation index: 45712 and 58272 and 41264 and 40992 and 44162 and 42054 and 43124 and 45062 and 41426
H322 NSCLC cells; Iressa alone 160 nM
  proliferation index: 35044 and 43832 and 32072 and 32728 and 33532 and 35078 and 34864 and 36144 and 34946
H322 NSCLC cells; Iressa alone 4000 nM
  proliferation index: 27738 and 27810 and 24546 and 24376 and 26742 and 28156 and 24528 and 28442 and 27026
H322 NSCLC cells; Iressa alone 20000 nM
  proliferation index: 10818 and 11294 and 10994 and 9734

B1: 19D12/15H12 LCF/HCA: monoclonal, fully-human anti-IGFR1 antibody: mature light chain F (SEQ ID NO: 2) paired with mature heavy chain A (SEQ ID NO: 4) (antibody, listed as Homo sapiens, V domains shown)
VH: MEFGLSWVFLVAILKGVQCEVQLVQSGGGLVKPGGSLRLSCAASGFTFSSFAMHWVRQAPGKGLEWISVIDTRGATYYADSVKGRFTISRDNAKNSLYLQMNSLRAEDTAVYYCARLGNFYYGMDVWGQGTTVTVSS
VL: MSPSQLIGFLLLWVPASRGEIVLTQSPGTLSVSPGERATLSCRASQSIGSSLHWYQQKPGQAPRLLIKYASQSLSGIPDRFSGSGSGTDFTLTISRLEPEDFAVYYCHQSSRLPHTFGQGTKVEIKRT
H322 NSCLC cells; antibody alone 0.000256 nM (Table 2 plates)
  proliferation index: 73420 and 74154 and 83338 and 74108 and 84234 and 83206 and 80894 and 82674 and 71784
H322 NSCLC cells; antibody alone 0.0064 nM (Table 2 plates)
  proliferation index: 61654 and 79014 and 72998 and 69060 and 64818 and 74862 and 76374 and 68206 and 70226
H322 NSCLC cells; antibody alone 0.8 nM (Table 2 plates)
  proliferation index: 40944 and 47470 and 52010 and 49636 and 55228 and 53706 and 56984 and 49396 and 47080
H322 NSCLC cells; antibody alone 0.8 nM (Table 3 plates)
  proliferation index: 49206
H322 NSCLC cells; antibody alone 4 nM (Table 2 plates)
  proliferation index: 42312 and 48884 and 49992 and 50508 and 47256 and 56998 and 54966 and 51438 and 44700
H322 NSCLC cells; antibody alone 20 nM (Table 2 plates)
  proliferation index: 44120 and 55106 and 50680 and 49038 and 56114 and 52446 and 51826 and 52490 and 48302
H322 NSCLC cells; antibody alone 20 nM (Table 3 plates)
  proliferation index: 51960 and 58598 and 48444 and 49156 and 51020 and 48730 and 49684 and 45064 and 52120
H322 NSCLC cells; antibody alone 5.12E−05 nM (Table 2 plates)
  proliferation index: 74408 and 87030 and 83636 and 79810 and 79650 and 90294 and 88940 and 86762 and 74996

B2: 19D12/15H12: 19D12/15H12 wild-type anti-IGFR1 antibody (antibody, listed as Homo sapiens, V domains shown)
VL: MSPSQLIGFLLLWVPASRGEIVLTQSPGTLSVSPGERATLSCRASQSIGSSLHWYQQKPGQAPRLLIKYASQSLSGIPDRFSGSGSGTDFTLTISRLEPEDFAVYYCHQSSRLPHTFGQGTKVEIKRT
VH: MEFGLSWVFLVAILKGVQCEVQLVQSGGGLVKPGGSLRLSCAASGFTFSSFAMHWVRQAPGKGLEWISVIDTRGATYYADSVKGRFTISRDNAKNSLYLQMNSLRAEDTAVYYCARLGNFYYGMDVWGQGTTVTVSS
MCF7 cells; 19D12/15H12 0.00001024 nM + doxorubicin 0.00001024 ug/mL
  Proliferation of MCF7 cells: 101144
MCF7 cells; 19D12/15H12 0.00001024 nM + doxorubicin 0.0000512 ug/mL
  Proliferation of MCF7 cells: 102670
MCF7 cells; 19D12/15H12 0.00001024 nM + doxorubicin 0.000256 ug/mL
  Proliferation of MCF7 cells: 100293
MCF7 cells; 19D12/15H12 0.00001024 nM + doxorubicin 0.0064 ug/mL
  Proliferation of MCF7 cells: 95276
MCF7 cells; 19D12/15H12 0.00001024 nM + doxorubicin 0.8 ug/mL
  Proliferation of MCF7 cells: 5132
MCF7 cells; 19D12/15H12 0.00001024 nM + doxorubicin 4 ug/mL
  Proliferation of MCF7 cells: 12606
MCF7 cells; 19D12/15H12 0.00001024 nM + doxorubicin 20 ug/mL
  Proliferation of MCF7 cells: 7789
MCF7 cells; 19D12/15H12 0.0000512 nM + doxorubicin 0.00001024 ug/mL
  Proliferation of MCF7 cells: 111388
MCF7 cells; 19D12/15H12 0.0000512 nM + doxorubicin 0.0000512 ug/mL
  Proliferation of MCF7 cells: 106322
MCF7 cells; 19D12/15H12 0.0000512 nM + doxorubicin 0.000256 ug/mL
  Proliferation of MCF7 cells: 107406
MCF7 cells; 19D12/15H12 0.0000512 nM + doxorubicin 0.0064 ug/mL
  Proliferation of MCF7 cells: 93794
MCF7 cells; 19D12/15H12 0.0000512 nM + doxorubicin 0.8 ug/mL
  Proliferation of MCF7 cells: 5649
MCF7 cells; 19D12/15H12 0.0000512 nM + doxorubicin 4 ug/mL
  Proliferation of MCF7 cells: 11124
MCF7 cells; 19D12/15H12 0.0000512 nM + doxorubicin 20 ug/mL
  Proliferation of MCF7 cells: 6793
MCF7 cells; 19D12/15H12 0.000256 nM + doxorubicin 0.00001024 ug/mL
  Proliferation of MCF7 cells: 86861
MCF7 cells; 19D12/15H12 0.000256 nM + doxorubicin 0.0000512 ug/mL
  Proliferation of MCF7 cells: 76193
MCF7 cells; 19D12/15H12 0.000256 nM + doxorubicin 0.000256 ug/mL
  Proliferation of MCF7 cells: 74312
MCF7 cells; 19D12/15H12 0.000256 nM + doxorubicin 0.0064 ug/mL
  Proliferation of MCF7 cells: 70725
MCF7 cells; 19D12/15H12 0.000256 nM + doxorubicin 0.8 ug/mL
  Proliferation of MCF7 cells: 5698
MCF7 cells; 19D12/15H12 0.000256 nM + doxorubicin 4 ug/mL
  Proliferation of MCF7 cells: 13174
MCF7 cells; 19D12/15H12 0.000256 nM + doxorubicin 20 ug/mL
  Proliferation of MCF7 cells: 6667
MCF7 cells; 19D12/15H12 0.0064 nM + doxorubicin 0.00001024 ug/mL
  Proliferation of MCF7 cells: 60936
MCF7 cells; 19D12/15H12 0.0064 nM + doxorubicin 0.0000512 ug/mL
  Proliferation of MCF7 cells: 60524
MCF7 cells; 19D12/15H12 0.0064 nM + doxorubicin 0.000256 ug/mL
  Proliferation of MCF7 cells: 61820
MCF7 cells; 19D12/15H12 0.0064 nM + doxorubicin 0.0064 ug/mL
  Proliferation of MCF7 cells: 53583
MCF7 cells; 19D12/15H12 0.0064 nM + doxorubicin 0.8 ug/mL
  Proliferation of MCF7 cells: 4702
MCF7 cells; 19D12/15H12 0.0064 nM + doxorubicin 4 ug/mL
  Proliferation of MCF7 cells: 10648
MCF7 cells; 19D12/15H12 0.0064 nM + doxorubicin 20 ug/mL
  Proliferation of MCF7 cells: 7057
MCF7 cells; 19D12/15H12 0.8 nM + doxorubicin 0.00001024 ug/mL
  Proliferation of MCF7 cells: 70307
MCF7 cells; 19D12/15H12 0.8 nM + doxorubicin 0.0000512 ug/mL
  Proliferation of MCF7 cells: 64429
MCF7 cells; 19D12/15H12 0.8 nM + doxorubicin 0.000256 ug/mL
  Proliferation of MCF7 cells: 60055
MCF7 cells; 19D12/15H12 0.8 nM + doxorubicin 0.0064 ug/mL
  Proliferation of MCF7 cells: 56538
MCF7 cells; 19D12/15H12 0.8 nM + doxorubicin 0.8 ug/mL
  Proliferation of MCF7 cells: 4916
MCF7 cells; 19D12/15H12 0.8 nM + doxorubicin 4 ug/mL
  Proliferation of MCF7 cells: 11778
MCF7 cells; 19D12/15H12 0.8 nM + doxorubicin 20 ug/mL
  Proliferation of MCF7 cells: 7693
MCF7 cells; 19D12/15H12 4 nM + doxorubicin 0.00001024 ug/mL
  Proliferation of MCF7 cells: 61992
MCF7 cells; 19D12/15H12 4 nM + doxorubicin 0.0000512 ug/mL
  Proliferation of MCF7 cells: 57611
MCF7 cells; 19D12/15H12 4 nM + doxorubicin 0.000256 ug/mL
  Proliferation of MCF7 cells: 58980
MCF7 cells; 19D12/15H12 4 nM + doxorubicin 0.0064 ug/mL
  Proliferation of MCF7 cells: 53567
MCF7 cells; 19D12/15H12 4 nM + doxorubicin 0.8 ug/mL
  Proliferation of MCF7 cells: 4259
MCF7 cells; 19D12/15H12 4 nM + doxorubicin 4 ug/mL
  Proliferation of MCF7 cells: 12760
MCF7 cells; 19D12/15H12 4 nM + doxorubicin 20 ug/mL
  Proliferation of MCF7 cells: 8097
MCF7 cells; 19D12/15H12 20 nM + doxorubicin 0.00001024 ug/mL
  Proliferation of MCF7 cells: 59288
MCF7 cells; 19D12/15H12 20 nM + doxorubicin 0.0000512 ug/mL
  Proliferation of MCF7 cells: 60307
MCF7 cells; 19D12/15H12 20 nM + doxorubicin 0.000256 ug/mL
  Proliferation of MCF7 cells: 62242
MCF7 cells; 19D12/15H12 20 nM + doxorubicin 0.0064 ug/mL
  Proliferation of MCF7 cells: 54983
MCF7 cells; 19D12/15H12 20 nM + doxorubicin 0.8 ug/mL
  Proliferation of MCF7 cells: 5202
MCF7 cells; 19D12/15H12 20 nM + doxorubicin 4 ug/mL
  Proliferation of MCF7 cells: 10465
MCF7 cells; 19D12/15H12 20 nM + doxorubicin 20 ug/mL
  Proliferation of MCF7 cells: 7489
